Results as given in US20230129812A1, “COMPOSITIONS AND METHODS FOR TREATING PULMONARY HYPERTENSION” (Acceleron Pharma Inc., priority 2020, published 2023).

Tests used:
activin B [1] = target: T1, activin B (Homo sapiens, UniProt P09529); test: Biacore ligand binding profile, ALK4-Fc:ActRIIB-Fc heterodimer vs homodimers, anti-Fc capture (Example 13, Table 13); conditions: ligand Activin B, Table 13
T1 sequence (P09529 293-407): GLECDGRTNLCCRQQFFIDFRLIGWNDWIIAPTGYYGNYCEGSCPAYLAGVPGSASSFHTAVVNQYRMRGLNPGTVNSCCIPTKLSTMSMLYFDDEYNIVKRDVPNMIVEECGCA
Description: (§1) A Biacore™-based binding assay was used to compare ligand binding selectivity of the ALK4-Fc:ActRIIB-Fc heterodimeric complex described above with that of ActRIIB-Fc and ALK4-Fc homodimer complexes. The ALK4-Fc:ActRIeB-Fc heterodimer, […], and ALK4-Fc homodimer were independently captured onto the system using an anti-Fc antibody. Ligands were injected and allowed to flow over the captured receptor protein. Results are summarized in Table 13 below, in which ligand off-rates (kd) most indicative of effective polypeptides are denoted in bold.

GDF8 [2] = target: T2, GDF8 (Homo sapiens, UniProt O14793); test: as above; conditions: ligand GDF8, Table 13
T2 sequence (O14793 267-375): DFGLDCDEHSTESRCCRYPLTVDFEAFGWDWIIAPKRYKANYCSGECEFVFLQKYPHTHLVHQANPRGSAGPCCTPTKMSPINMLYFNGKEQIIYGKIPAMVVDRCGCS
Description: as §1

activin A [3] = target: T3, activin A (Homo sapiens, UniProt P08476); test: as above; conditions: ligand Activin A, Table 13
T3 sequence (P08476 311-426): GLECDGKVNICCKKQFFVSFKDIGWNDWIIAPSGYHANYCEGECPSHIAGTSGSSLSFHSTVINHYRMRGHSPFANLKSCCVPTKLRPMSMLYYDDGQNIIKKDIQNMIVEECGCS
Description: as §1

GDF11 [4] = target: T4, GDF11 (Homo sapiens, UniProt O95390); test: as above; conditions: ligand GDF11, Table 13
T4 sequence (O95390 299-407): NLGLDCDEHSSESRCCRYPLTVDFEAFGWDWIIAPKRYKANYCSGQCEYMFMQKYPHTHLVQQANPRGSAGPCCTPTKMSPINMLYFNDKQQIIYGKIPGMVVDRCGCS
Description: as §1

activin AB = target: T5, activin AB (Homo sapiens, UniProt P08476+P09529); test: Biacore ligand binding profile, ActRIIA-Fc:ALK4-Fc heterodimer vs homodimers, anti-Fc capture (Example 17, Table 14); conditions: ligand Activin AB, Table 14
T5 sequence (P08476 311-426): T3 sequence (P08476 311-426)
T5 sequence (P09529 293-407): T1 sequence (P09529 293-407)
Description: (§2) A Biacore™-based binding assay was used to compare ligand binding selectivity of the ActRIIA-Fc:ALK4-Fc heterodimeric complex described above with that of ActRIIA-Fc and ALK4-Fc homodimeric complexes. The ActRIIA-Fc:ALK4-Fc heterodimer, ActRIIA-Fc homodimer, and ALK4-Fc homodimer were independently captured onto the system using an anti-Fc antibody. Ligands were injected and allowed to flow over the captured receptor protein. Results are summarized in Table 14 below, in which ligand off-rates (kd) most indicative of effective ligand traps are denoted in bold.

activin B [5] = target: T1, activin B; test: as above; conditions: ligand Activin B, Table 14
Description: as §2

activin AC = target: T6, activin AC (Homo sapiens, UniProt P08476+P55103); test: as above; conditions: ligand Activin AC, Table 14
T6 sequence (P08476 311-426): T3 sequence (P08476 311-426)
T6 sequence (P55103 237-352): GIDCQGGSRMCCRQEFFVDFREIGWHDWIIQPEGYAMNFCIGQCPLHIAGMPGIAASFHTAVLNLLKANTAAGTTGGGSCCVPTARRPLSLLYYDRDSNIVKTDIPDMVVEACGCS
Description: as §2

GDF8 [6] = target: T2, GDF8; test: as above; conditions: ligand GDF8, Table 14
Description: as §2

activin A [7] = target: T3, activin A; test: as above; conditions: ligand Activin A, Table 14
Description: as §2

BMP6 [8] = target: T7, BMP6 (Homo sapiens, UniProt P22004); test: as above; conditions: ligand BMP6, Table 14
T7 sequence (P22004 375-513): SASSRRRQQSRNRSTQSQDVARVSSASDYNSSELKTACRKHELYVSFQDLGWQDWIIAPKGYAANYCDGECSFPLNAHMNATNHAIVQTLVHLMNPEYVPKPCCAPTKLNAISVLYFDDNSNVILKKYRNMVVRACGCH
Description: as §2

BMP10 [9] = target: T8, BMP10 (Homo sapiens, UniProt O95393); test: as above; conditions: ligand BMP10, Table 14
T8 sequence (O95393 317-424): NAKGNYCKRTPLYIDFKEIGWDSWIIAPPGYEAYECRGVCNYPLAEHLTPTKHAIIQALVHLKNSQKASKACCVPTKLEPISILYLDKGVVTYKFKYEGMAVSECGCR
Description: as §2

GDF11 [10] = target: T4, GDF11; test: as above; conditions: ligand GDF11, Table 14
Description: as §2

BMP7 = target: T9, BMP7 (Homo sapiens, UniProt P18075); test: as above; conditions: ligand BMP7, Table 14
T9 sequence (P18075 293-431): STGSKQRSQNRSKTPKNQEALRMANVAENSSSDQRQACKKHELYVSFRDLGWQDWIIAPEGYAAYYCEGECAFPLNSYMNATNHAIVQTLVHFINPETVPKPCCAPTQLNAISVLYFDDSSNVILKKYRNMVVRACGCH
Description: as §2

activin B [11] = target: T1, activin B; test: Biacore ligand affinity of ActRIIB-hFc forms, steady-state affinity fit; type: binding
Description: (§3) Affinities of several ligands for ActRIIB(25-131)-hFc and its full-length counterpart ActRIIB(20-134)-hFc were evaluated in vitro with a Biacore™ instrument, and the results are summarized in Table 8 below. Kd values were obtained by steady-state affinity fit due to very rapid association and dissociation of the complex, which prevented accurate determination of kon and koff. ActRIIB(25-131)-hFc bound, for example, activin A, activin B, and GDF11 with high affinity.
(§4) The affinity of ActRIIB variants and other ActRIIB-hFc proteins for several ligands was evaluated in vitro with a Biacore™ instrument. Kd values were obtained by steady-state affinity fit due to the very rapid association and dissociation of the complex, which prevented accurate determination of kon and koff.

activin A [12] = target: T3, activin A; test: as above; type: binding
Description: as §3, §4

GDF11 [13] = target: T4, GDF11; test: as above; type: binding
Description: as §3, §4

GDF8 [14] = target: T2, GDF8; test: Biacore ligand affinity of ActRIIB-hFc variants (Example 10); type: binding
Description: as §4

BMP6 [15] = target: T7, BMP6; test: as above; type: binding
Description: as §4

BMP10 [16] = target: T8, BMP10; test: as above; type: binding
Description: as §4

B1: ALK4-Fc homodimer: ALK4-Fc homodimer complex used as comparator in Examples 13 and 17 (protein)
chain: SGPRGVQALLCACTSCLQANYTCETDGACMVSIFNLDGMEHHVRTCIPKVELVPAGKPFYCLSSEDLRNTHCCYTDYCNRIDLRVPSGHLKEPEHPSMWGPVE
modifications: left off: a dimerising Fc or GST
In the case of B1, the KD (activin B [1]) is reported as “No binding”, the Kd (GDF8 [2]) is reported as 15 nM and the ka (GDF8 [2]) is reported as 130000 M⁻¹ s⁻¹. It also gave a kd (GDF8 [2]) of 0.0019 s⁻¹, a ka (activin A [3]) of 580000 M⁻¹ s⁻¹ and a kd (activin A [3]) of 0.012 s⁻¹. It also gave a Kd (GDF11 [4]) of 0.27 nM, a ka (GDF11 [4]) of 5e+06 M⁻¹ s⁻¹ and a kd (GDF11 [4]) of 0.0048 s⁻¹. For the same molecule, the ka (activin AB) was 1.8e+06 M⁻¹ s⁻¹, the kd (activin AB) was 0.0036 s⁻¹ and the KD (activin B [5]) was “No binding”. The KD (activin AC) was “No binding”, the Kd (GDF8 [6]) was 15 nM and the ka (GDF8 [6]) was 130000 M⁻¹ s⁻¹. For the same molecule, the kd (GDF8 [6]) was 0.0019 s⁻¹, the ka (activin A [7]) was 580000 M⁻¹ s⁻¹ and the kd (activin A [7]) was 0.012 s⁻¹. For the same molecule, the KD (BMP6 [8]) was “No binding”, the KD (BMP10 [9]) was “No binding” and the ka (GDF11 [10]) was 5e+06 M⁻¹ s⁻¹. For the same molecule, the kd (GDF11 [10]) was 0.0048 s⁻¹ and the KD (BMP7) was “No binding”.

B2: ActRIIB(L79D 25-131)-hFc: truncated ActRIIB extracellular domain (residues 25-131) with L79D substitution fused to human Fc (protein)
chain: ETRECIYYNANWELERTNQSGLERCEGEQDKRLHCYASWRNSSGTIELVKKGCWDDDFNCYDRQECVATEENPQVYFCCCEGNFCNERFTHLPEAGGPEVTYEPPPTGGGTHTCPPCPAPELLGGPSVFLFPPKPKDTLMISRTPRVTCVVVDVSHEDPEVKFNWYVDGVEVHNAKTKPREEQYNSTYRVVSVLTVLHQDWLNGKEYKCKVSNKALPAPIEKTISKAKGQPREPQVYTLPPSREEMTKNQVSLTCLVKGFYPSDIAVEWESNGQPENNYKTTPPVLDSDGSFFLYSKLTVDKSRWQQGNVFSCSVMHEALHNHYTQKSLSLSPGK
With B2 the “activin B binding” value (activin B [11]; Biacore) was “partial loss of activin B binding”, the Kd (activin B [11]; Table 12, Kd by steady-state affinity fit, read-out: Activin B (Kd e−11)) was 0.621 nM and the “activin A binding” value (activin A [12]; Biacore) was “pronounced loss of activin A binding”. The Kd (activin A [12]; Table 12, Kd by steady-state affinity fit, read-out: Activin A (Kd e−11)) was 22.9 nM, the “GDF11 binding” value (GDF11 [13]; Biacore) was “nearly full retention of GDF11 binding” and the Kd (GDF11 [13]; Table 12, Kd by steady-state affinity fit, read-out: GDF11 (Kd e−11)) was 0.074 nM. The “GDF8 binding” value (GDF8 [14]) was “strong to intermediate binding”, the “BMP6 binding” value (BMP6 [15]) was “strong to intermediate binding” and the “BMP10 binding” value (BMP10 [16]) was “strong to intermediate binding”.
